From the supplement of paper PMC9732359
± gives the uncertainty stated by the source.

Test: protein stability index of a GFP-peptide fusion (yeast GPS) (PSI 1-4); higher = more stable; sorted into four equal gates, so the index is relative within each strain
In short: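 Tiled yeast protein peptides of 17 residues were each joined downstream of GFP, on plasmids that also express Cherry. The pooled library was maintained in yeast, and mid-log cultures in leucine-free medium were sorted into four equal gates on the GFP/Cherry ratio. Plasmids from every gate were amplified by PCR and sequenced on Illumina, with barcodes linking reads to strains. The protein stability index of a peptide is its gate-number-weighted read frequency summed over the gates.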

Row | Sequence | protein stability index (doa10∆) | protein stability index (pdr5∆) | protein stability index (san1∆) | protein stability index (ubr1∆)
1 | IMNVLSEGFEPTFSTHA [PRP8] | 2.86 ± 0.096 | 2.94 ± 0.075 | 2.57 ± 0.07 | 2.67 ± 0.069
2 | VPPINCIFNFLQQQTPV [SME1] | 1.34 ± 0.042 | 1.58 ± 0.035 | 1.49 ± 0.065 | 1.64 ± 0.042
3 | WSSEFAKWAPTLRTISF [SNF2] | 2.36 ± 0.057 | 2.41 ± 0.043 | 2.78 ± 0.063 | 2.47 ± 0.056
4 | KHLEDNTLLVTGPFKVN [RPL6B] | 3.03 ± 0.18 | 2.53 ± 0.16 | 3.08 ± 0.093 | 1.78 ± 0.072
5 | SKLMPVLKSSVYEYVIA [RPC82] | 1.42 ± 0.061 | 1.57 ± 0.059 | 1.25 ± 0.1 | 1.46 ± 0.056
6 | KQRKNPRRIAWTVLFRK [RPL24A] | 3.03 ± 0.14 | 2.27 ± 0.1 | 1.41 ± 0.25 | 2.27 ± 0.048
7 | KCGVISPRFNVKIGDIE [RPS22A] | 3.28 ± 0.1 | 3.35 ± 0.093 | 2.78 ± 0.11 | 3.43 ± 0.079
8 | YTANTSAQSIASAKSVR [YAR002W/NUP60] | 2.64 ± 0.088 | 2.93 ± 0.11 | 2.65 ± 0.09 | 2.71 ± 0.12
9 | FYDYIKERSIVVGRTTR [REC8] | 1.9 ± 0.077 | 1.72 ± 0.064 | 1.22 ± 0.13 | 1.17 ± 0.045
10 | NPTKSKEILDNILPFLW [ECM29] | 2.26 ± 0.085 | 2.97 ± 0.1 | 2.8 ± 0.23 | 2.61 ± 0.085
11 | SVFKGGMQNLIKKKKKK [SRP14] | 2 ± 0.18 | 3.05 ± 0.3 |  | 
12 | SGLFVDVKKRTYEAIDV [RPB2] | 2.48 ± 0.12 | 3.28 ± 0.12 | 2.99 ± 0.1 | 3.14 ± 0.097
13 | NLLCYYNLRSLNLINAK [RPN3] | 1.48 ± 0.049 | 1.71 ± 0.06 | 1.36 ± 0.12 | 1.25 ± 0.041
14 | LVDVMTTQGGLTSVTRH [RPO21] | 2.14 ± 0.1 | 2.38 ± 0.072 | 2.1 ± 0.09 | 2.3 ± 0.069
15 | TKLIISGQLNFEIDGDV [PCI8] | 2.57 ± 0.099 | 2.16 ± 0.093 | 1.87 ± 0.11 | 2.23 ± 0.055
16 | TIRQIILPDSLNLDSLL [SMD1] | 3.03 ± 0.076 | 2.67 ± 0.065 | 3.11 ± 0.055 | 2.7 ± 0.046
17 | SMFLRIDYSNSQIRLYA [RGR1] | 2.9 ± 0.076 | 2.44 ± 0.066 | 2.4 ± 0.068 | 2.44 ± 0.043
18 | DARGVIGVIAGGGRVDK [RPL2A] | 3.18 ± 0.093 | 3.11 ± 0.11 | 3.06 ± 0.11 | 2.86 ± 0.071
19 | GVLLPTRIKLLLTKNVS [RPS6A] | 1.43 ± 0.11 | 1.49 ± 0.11 |  | 2.03 ± 0.11
20 | ARTATVSKKWAAAGVCE [RPL14B] | 2.9 ± 0.089 | 3.21 ± 0.084 | 3.58 ± 0.11 | 2.72 ± 0.066
21 | TSVQEKELMLQSKKLIE [YIL149C/MLP2] | 2.65 ± 0.089 | 2.94 ± 0.096 | 2.84 ± 0.084 | 2.91 ± 0.063
22 | SRTAADILLRLCVLWDD [YCG1] | 2.23 ± 0.24 |  |  | 3 ± 0.24
23 | EIVWTSSLIKAGLDKGI [RPO31] | 1.92 ± 0.047 | 1.96 ± 0.061 | 2.54 ± 0.05 | 1.57 ± 0.057
24 | GVARNFHFAIEQISNNS [SIN4] | 2.8 ± 0.1 | 2.13 ± 0.075 | 2.08 ± 0.064 | 2.97 ± 0.062
25 | RSDSYMLHKVLENKADP [RPT6] | 2.65 ± 0.1 | 2.99 ± 0.1 | 2.93 ± 0.056 | 2.83 ± 0.091
26 | DSKLLPKNIEPPLTSQY [SWI3] | 2.89 ± 0.058 | 2.91 ± 0.049 | 2.92 ± 0.041 | 2.92 ± 0.04

Row | Sequence | protein stability index (doa10∆) | protein stability index (pdr5∆) | protein stability index (san1∆) | protein stability index (ubr1∆)
27 | VKIHSQESLLSRTFDKY [SRP72] | 2.92 ± 0.053 | 2.79 ± 0.071 | 2.96 ± 0.055 | 2.57 ± 0.041
28 | QVLLDEEYKQLVKDRKF [RPO21] | 3.07 ± 0.085 | 3.28 ± 0.06 | 3.15 ± 0.14 | 2.82 ± 0.1
29 | MQENDKINQERLERRIN [CSI1] | 1.62 ± 0.065 | 1.92 ± 0.062 | 1.26 ± 0.1 | 1.27 ± 0.044
30 | VSCYRPRRDGERKRKSV [RPS6A] | 1.79 ± 0.22 | 2.91 ± 0.17 | 3.51 ± 0.13 | 3.38 ± 0.082
31 | SLQYIERQQDELENFLD [YJL041W/NSP1] | 3.1 ± 0.1 | 3.04 ± 0.14 | 3.43 ± 0.096 | 3.12 ± 0.054
32 | RSTDVWYEASTWIQQFK [ARP7] |  | 3.64 ± 0.13 | 2.45 ± 0.28 | 2.97 ± 0.13
33 | MGAYKYLEELQRKKQSD [RPL15A] |  | 2.75 ± 0.28 |  | 
34 | EGLDELPKIIQLQGPQW [SOH1] | 3.16 ± 0.068 | 3.35 ± 0.057 | 3.18 ± 0.043 | 3.15 ± 0.056
35 | PGPRLLYENIASSPIIL [RPN10] | 2.1 ± 0.03 | 2.29 ± 0.038 | 2.2 ± 0.057 | 2.12 ± 0.028
36 | SRILYKAIRGMVSHKTA [RPL16B] | 1.26 ± 0.057 | 1.2 ± 0.066 | 1.22 ± 0.16 | 1.25 ± 0.063
37 | YGPPGTGKTLLARACAA [RPT5] | 2.5 ± 0.13 | 2.53 ± 0.081 | 2.29 ± 0.18 | 
38 | APLNLEIPAYEFDGDKV [RIP1] | 2.6 ± 0.099 | 2.54 ± 0.096 | 2.55 ± 0.077 | 2.72 ± 0.077
39 | AQAQAQAQAQAHAQHQP [GAL11] | 2.81 ± 0.029 | 2.926 ± 0.023 | 2.834 ± 0.027 | 3.032 ± 0.024
40 | GVDPTGSHLFSIHAHGS [PUP1] | 2.31 ± 0.1 | 2.52 ± 0.15 | 2.5 ± 0.11 | 2.06 ± 0.12
41 | QLDEFKNKYLKDVLAQT [SWP82] | 2.52 ± 0.12 | 2.52 ± 0.15 | 2.4 ± 0.1 | 2.36 ± 0.057
42 | LEACIVRIMKAKRNLPH [CDC53] | 1.5 ± 0.087 | 1.61 ± 0.059 | 1.3 ± 0.13 | 1.21 ± 0.045
43 | TVLETLLSDVNQNQRNV [SMC3] | 3.23 ± 0.13 | 2.94 ± 0.057 | 3.01 ± 0.085 | 3.02 ± 0.082
44 | STIEKDMKEYDSDKGSK [SMC2] | 3.25 ± 0.1 | 3.44 ± 0.071 | 3.37 ± 0.056 | 3.44 ± 0.075
45 | LSDVAFYVQDVYKDNLS [RPO31] | 1.8 ± 0.12 | 1.7 ± 0.12 |  | 1.22 ± 0.14
46 | KDGEIMLWNLAAKKAMY [ASC1] | 2.55 ± 0.071 | 1.87 ± 0.05 | 2.26 ± 0.067 | 1.76 ± 0.097
47 | HTEDTVNESRNSDDIID [SRB5] | 2.31 ± 0.061 | 2.52 ± 0.056 | 2.43 ± 0.071 | 2.46 ± 0.055
48 | CKNFEKTQLGSTMTEPV [GAL11] | 2.81 ± 0.05 | 2.84 ± 0.065 | 2.58 ± 0.054 | 2.84 ± 0.039
49 | EVIFSFEGTPPFSLTYV [YMR129W/POM152] | 2.09 ± 0.051 | 2.21 ± 0.063 | 2.11 ± 0.083 | 2.25 ± 0.047
50 | NHMLIDSLNQLEIRNKI [RGR1] | 2.97 ± 0.097 | 3.04 ± 0.069 | 2.92 ± 0.079 | 3.08 ± 0.076
51 | LANWFLEVYASGNPNAT [YML031W/NDC1] | 2.03 ± 0.055 | 2.17 ± 0.046 | 2.37 ± 0.075 | 1.69 ± 0.045
52 | EKLKQFSWISVVNDLVG [SIR3] | 1.61 ± 0.052 | 1.99 ± 0.058 | 1.53 ± 0.08 | 1.55 ± 0.034
